The results in this text go back to patent US20200055952A1 (B CELL DESIGN, published 2020).

In experiment [1] the target is carcinoembryonic antigen (CEA) on WiDr human colorectal cancer cells (human) (UniProt P06731). Nature of the experiment: cell-based or functional assay.
In the next experiment the target is T1, CEACAM-6 (NCA or CD66c) (UniProt P40199 35-320, limits assumed).
T1 construct: whole, on cells
T1 sequence (looked up): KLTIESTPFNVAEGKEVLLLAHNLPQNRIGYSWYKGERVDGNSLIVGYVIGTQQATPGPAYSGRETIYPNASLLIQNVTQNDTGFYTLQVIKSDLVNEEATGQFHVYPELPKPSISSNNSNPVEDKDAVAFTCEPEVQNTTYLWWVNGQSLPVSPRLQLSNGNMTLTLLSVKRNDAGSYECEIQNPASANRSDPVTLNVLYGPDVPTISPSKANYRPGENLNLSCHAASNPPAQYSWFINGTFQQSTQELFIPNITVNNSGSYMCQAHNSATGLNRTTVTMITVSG
Nature of the experiment: immunofluorescence on tissues (liver and stomach) and flow cytometry on leukocytes, data not shown.

“irrelevant polymeric IgA anti-peanut (antibody)”: the doubly selected cells (Effector Cell (CD89+): WiDr target cells (CEA+)) by flow cytometry, in vivo in SCID-CD89 mice in experiment [1] is 10.2%.

B1: anti-CEA IgA monoclonal antibody clone 15B3 (human/mouse chimeric IgA1, hybridoma culture supernatant) (antibody, V domains shown)
VH: QIQLVQSGPELKKPGETVKISCKASGYTFTNYGMNWVNQAPGKGLKWMGWINTNTGEPTYAEEFKGRFAFSLETSASTAYLQINNLKNEDTATYFCARLWYLYFDVWGAGTTVTVSS
VL: DIQMTQSPASQSASLGESVTITCLASQTIGTRLAWYQQKPGKSPQLLIYAATRLADGVPSRFSGSGSGTKFSFKISSLQAEDFVSYYCQQLYSTPYTFGGGTKLEIK
notes: From HAMIGA mice: human IgA1 heavy chain constant regions, mouse light chain constant regions, mouse variable regions; The hybridoma supernatant holds monomeric (no J chain) and polymeric (murine J chain) forms; also called mAb 15B3; IgA anti-CEA clone #15B3
B1: the binding result in the experiment with CEACAM-6 (NCA or CD66c) is reported as “no binding”.
